Here are results for 1 variant from PMC6677536 (2019).

First the molecules themselves.
B1: Full-length Nxf2, 3xFLAG-tagged [D. melanogaster] / Full-length Panx, HA-tagged [D. melanogaster] (parent complex)
chain 1: MPNQMRVLDFGDGSVPIQLDYPDSKIFSKCSSYGDRVPGTHWNEITVHHKGRLEYSPNPEQIILDALYQAIDGADFFPVFYQRGKNMDTMLVRNCKAAIDKLFKQRLSINLKGGASIPISIQLGVAQYQRHQITPTFHIARVVTRLMKQLIQRDGVDGLLNLDNFGSHPEFKNLVVSLGNPSILMNVCQVIHNDDNERFRLNGFILSNNRIRDIRPLTLLANVDYALLDLRGNKIKSAERLCRALEQFRARELLLENNPIVKISNFPANIKSLESNFELVDGKPFNMLHKIFSPLDVEIDLEVDGARIDTNNMWKLPEFENSQHWHAFMIPDPSHEFNQEVFFDFFFIRLDPTLSNFYPCYYKYINTEHVFLVRNCFDQIAHLVNNCNLEMTIPTGDRIFRYYLRMNVSTVKQHHVDPEECIQKAVSQCYVAQNRMLNLERFHSRECLKDVMVSLSSPKILTYVLSVASRKFMTTCSEIRLCHNKVLVLDGAHVLGMMGCLRAVDLSHNWVQDLSSIHSLGNLPLKSLVLHGNKLCRNYRLPSEYVRAVKEVFPQLTTLDGVDLQTNPGQSLQKNFLCDTGAYELVGAFLENYLREFENDEFRHNLYKYYSENSIFTLTCNYNVVQNHQTPKILQRLSKYNRHARNLRNKDYSKASDGVFFGCTYIVEILLQLPRVTHDFHSLQTDVMHYNGKGAVIYVAGLLRDEPPSTRNGHGSKTDIGGVLLGFSRQFVVTFDEANLGLGKRARRLKIANERLHITNPSKTAIRNAFSVNFPDPSERQAEEDSLDVKDHKLLLFQEVTGLISTWVTSIVEEADWDFERALKLFIQKNADHEIPDLAFA
chain 2: MEAPMKLEVKVENYVECGINEDEATPLREGTGETPPHAFACGVPMSGSGWCSDPEDGNLVHHSATPTSDEHLQPSLDTIEPKMEPKIKEDADNAMLDSLLADPFENNSPATLQTPADVKPNAMLDSVEQGSRSCELLPSEFSKRENLDDMDLFSLKAAKTLVPDEQQSFPQNDTPIDDPEAADLIAQKREILKMLEMTAENRKVKHKKKKHKKERSHRSNKHQEESRKRNHSNSSSDEGADDKNQFDCDYRGHKKYKNRRGSASSQNESSKERKLRDTELDYVPVRPDEHFIRPIKFSNLIERRPPQVEFNTVNLSKADKRSLAVARAELVLEQIQQKANKEEPPEFHMVDTICKLPVNESFRNQDCFENPSPICNNMNVVYKFNSTPGTRIDLSKWGLETVPEATKRLLRLLGIDVARLKELQSTVKPSQRILKLKKEQLEQGLAPTEEQETATLYKNAATQTERRTATRDAGTQVRLESKLNGAFWQNPHFDPMNLTQHQSNVMLALQEIYQTLPSATMAVKLSRALAPALAIIKGRQP

Variants of B1 are the subject of this test. As to the kind of experiment: FLAG-tag co-immunoprecipitation, western blot quantification; lysates of transfected S2 cells; read off a plot. (In general: Immunoblotting shows a protein as a band on a membrane.)
With chain 1 R755G, the log10 ratio was ~-0.45 log10 coIP index [arbitrary unit].
